Source: US5128450A, “Nonglycosylated human interleukin-3 analog proteins” (priority 1989, dated 1992)

Assays:
rhesus monkeys = conditions: cited from earlier work
human bone marrow cells = test: Human bone marrow proliferation assay; type: cell-based
Method: Freshly isolated human bone marrow cells are preincubated for 2 hours at 37° C., 5% CO2, in tissue culture flasks containing 2×10^6 cells per mi prewarmed, pregassed serum-free RPMI1640 medium (Gibco, Chagrin Falls, OH, USA) containing 50 units/ml penicillin, 50 μg/ml streptomycin, and 300 μg/ml fresh L-glutamine (hereinafter "assay medium"). After preincubation, nonadherent cells are removed by pipetting the media gently over the surface of the flask. Nonadherent cells are collected by centrifugation at 1000 rpm for 10 minutes at 4° C., resuspended in a small volume of assay medium containing 10% fetal bovine serum (FBS), and counted using Trypan blue for viability and Turks stain for recovery of white cells. Cells are kept at about 4° C. in assay medium containing 10% FBS until added to assay plates.
50 μl assay medium are added to each well of a 96 well flat bottom tissue culture plate. 50 μl of sample diluted in assay medium are added to the first well of each row, and serial dilutions are made across each row in the usual manner. […] After incubation, cells are harvested onto glass fiber filters, washed, and tested for incorporated radioactivity using a scintillation counter. Units of huIL-3 activity are calculated by reference to the quantity of huIL-3 which induces 50% of maximal thymidine incorporation. […]

B1: huIL-3 (Ser^8): composition of huIL-3 (Ser^8) produced in E. coli, reported by Valent et al. (protein, UniProt P08700 20-152, looked up, variant P8S)
Interleukin-3: APMTQTTSLKTSWVNCSNMIDEIITHLKQPPLPLLDFNNLNGEDQDILMENNLRRPNLEAFNRAVKSLQNASAIESILKNLLPCLPLATAAPTRHPIHIKDGDWNEFRRKLTFYLKTLENAQAQQTTLSLAIF
For B1, the “intracellular histamine (IH) in WBC” value (rhesus monkeys; after IL-3 treatment until day 8-10) is given as “rise continuously”, the “white blood cell (WBC) increase” value (rhesus monkeys; by day 14, 11, 33, 100 μg/kg/day s.c. thrice daily) is given as 2-3 fold and the plasma histamine (rhesus monkeys; rhesus monkey, in vivo) is given as “rise in plasma histamine values”. For the same molecule, the “skin side effects (skin biopsy)” value (rhesus monkeys; rhesus monkey, in vivo) was “urticaria-like exanthem revealing infiltration of mast cells and lymphocytes into the dermis”.

B2: Met^3 rhuIL-3 (Pro^8 Asp^15 Asp^70): truncated, non-glycosylated IL-3 analog having an N-terminus at Met^3, expressed from pIXY290 (protein, UniProt P08700 20-152, looked up, variant del1-2 N15D N70D)
Interleukin-3: MTQTTPLKTSWVDCSNMIDEIITHLKQPPLPLLDFNNLNGEDQDILMENNLRRPNLEAFNRAVKSLQDASAIESILKNLLPCLPLATAAPTRHPIHIKDGDWNEFRRKLTFYLKTLENAQAQQTTLSLAIF
In the case of B2, the “biological activity compared with production lots of Example 2” value (human bone marrow cells) is reported as “comparable in biological activity to the rhuIL-3 production lots”.
